Assay [1] deals with T1, human GPC3 on cells (human, UniProt P51654 25-554).
T1 construct: GPI-anchored protein on transfected CHO-S cells, on human tumor cell lines or on HEK293T cells; the cell is named under assay; also called human GPC3 on CHO-S transfected cells; HuGPC3-CHO
Briefly: flow cytometry on JHH-5 cells (GPC3-mid), 24 h at 4 C, anti-human IgG Fc AF647. A general note: In flow cytometry, cells or beads pass a laser one at a time.
Protocol: (§1) Cell lines investigated included GPC3-hi HepG2 and JHH-7 cells, GPC3-mid JHH-5 cells, as well as GPC3-negative SNU-601 cells.
(§2) Briefly, cells were seeded at 50,000 cells/well in V-bottom 96-well plates and treated with antibody for 24 hours at 4° C. to prevent internalization. […] Following incubation and washing, fluorescence was detected by flow cytometry on a BD LSRFortessa™ Cell Analyzer (BD Biosciences, Franklin Lake, NJ) with 1,000 minimum events collected per well. AF647/APC-A GeoMean (fluorescence signal geometric mean, proportional to anti-Human AF647 binding) in live cell population was plotted against antibody concentration using GraphPad Prism Version 9 (GraphPad Software, San Diego, CA). The Bmax, Curve Hill Slope (h) and Kd values were derived from the “Specific binding with Hill slope” nonlinear regression curve fit in GraphPad Prism Version 9.

The target in assay [2] is T1, human GPC3 on cells. Nature of the assay: flow cytometry on JHH-7 cells (GPC3-high), 24 h at 4 C, anti-human IgG Fc AF647.
Protocol: as §2
Assay [3] addresses T1, human GPC3 on cells. Briefly: flow cytometry, CHO-S cells transfected with human GPC3; apparent Kd.
Protocol: (§3) Briefly, CHO—S cells were transiently transfected for −24 hours with a pTT5-based expression plasmid encoding human GPC3 or cynomolgus monkey GPC3, 0.5 μg DNA per 1 million cells, using the Neon™ Transfection System (Thermo Fisher Scientific Corp., Waltham, MA), to transiently express human or cynomolgus monkey GPC3. Following transfection, cells were seeded at 50,000 cells/well in V-bottom 96-well plates and treated with antibody for 24 hours at 4° C. to prevent internalization. […] Following incubation and washing, fluorescence was detected by flow cytometry on a BD LSRFortessa™ Cell Analyzer (BD Biosciences, Franklin Lake, NJ) with 1,000 minimum events collected per well. AF647/APC-A GeoMean (fluorescence signal geometric mean, proportional to anti-Human AF647 binding) in live cell population was plotted against antibody concentration using GraphPad Prism Version 9 (GraphPad Software, San Diego, CA). The Bmax and Kd values were derived from the “Specific binding with Hill slope” nonlinear regression curve fit in GraphPad Prism Version 9.
The target of assay [4] is T1, human GPC3 on cells. Briefly: flow cytometry on HepG2 cells (GPC3-high), 24 h at 4 C, anti-human IgG Fc AF647.
Protocol: as §2
Assay [5] concerns the target T2, recombinant cynomolgus GPC3 (ACROBiosystems) (cynomolgus monkey, UniProt A5A6P7 25-559 (Pan troglodytes entry), limits assumed).
T2 construct: bought antigen of the SPR assays; also called cynoGPC3
Nature of the assay: SPR, antibody captured on anti-Fc, GPC3 injected, 1:1 fit. On the technique in general: In SPR one partner is held on a chip, and binding of the other changes the refractive index at the surface.
Protocol: (§4) Antigens: recombinant human and cynomolgus GPC3 was purchased from ACROBiosystems (Newark, DE) and SEC purified on a Superdex 200 10/300 GL column (Cytiva) in PBST running buffer at 0.8 mL/min.
(§5) Screening of the antibodies for binding to GPC3 antigen was conducted via anti-Fc capture of antibodies, followed by the injection of five concentrations of GPC3. The anti-Fc surface was prepared on a CM5 Series S sensor chip by standard amine coupling methods as described by the manufacturer (Cytiva Life Sciences, Mississauga, ON, Canada). […] Approximately 500-600 RUs of each antibody (1-3 μg/mL) were captured on the goat anti-human IgG surface by injecting at 10 μL/min for 60s. Using single-cycle kinetics, five concentrations of a two-fold dilution series of human or cynomolgus GPC3 starting at 40 nM (or 20 nM) with a blank buffer control were injected at 40 μL/min for 180s of contact time, followed by 180 s (or 300 s) dissociation phase, resulting in sensorgrams with a buffer blank reference. The anti-Fc surface was regenerated to prepare for the next injection cycle by one pulse of 10 mM glycine/HCl pH 1.5 for 180 s at 40 μL/min. Blank-subtracted sensorgrams were analyzed using Biacore™ T200 Evaluation Software v3.0. The blank-subtracted sensorgrams were then fit to the 1:1 Langmuir binding model.

Assay [6] has as its target T3, recombinant human GPC3 (ACROBiosystems) (human, UniProt P51654 25-559).
T3 construct: bought antigen of the SPR assays, SEC purified; also called huGPC3; hGPC3
Described as above.
Protocol: as §4, §5

Assay [7] addresses KLH (Sigma-Aldrich, H8283). Briefly: NS-ELISA, plate coated with KLH, antibody at 100 nM. (In general: An ELISA detects its analyte on a solid surface through an enzyme-linked reagent.)
Protocol: 50 μL each of insulin, KLH, dsDNA and ssDNA were added to a 96 well plate, followed by the incubation at 37° C. for 2 h. The coating materials were removed, and the plate was blocked with 200 μL of Gibco™ PBS pH7.4, 0.1% Tween®20, and incubated for 1 h at room temperature with shaking at 200 rpm. The plate was washed 3 times with Gibco™ PBS pH7.4, 0.1% Tween 20. 50 μL of each mAb at 100 nM (15 mg/mL) in Gibco™ PBS pH 7.4, 0.1% Tween®20 was added in duplicate to the wells and incubated for 1 h at room temperature with shaking at 200 rpm. Plates were washed three times with Gibco™ PBS pH7.4, 0.1% Tween 20, and 50 μL of 50 ng/mL anti-human IgG HRP (Thermofisher Scientific©, H₁₀₃₀₇) was added to each well. Plates were incubated for 1 h at room temperature, with shaking at 200 rpm. The plate was washed three times with Gibco™ PBS pH7.4, 0.1% Tween 20, and 100 μL of TMB substrate (Cell Signaling Technology©, 7004P6) added to each well. […] Binding scores were calculated as the ratio of the ELISA signal of the antibody to the signal of a well containing buffer instead of the primary antibody. The cutoffs considered for each binding molecule (ssDNA. KLH, Insulin, dsDNA and Heparin) were internally calculated.
Assay [8] addresses T4, cynomolgus monkey GPC3 on CHO-S transfected cells (cynomolgus monkey, UniProt A5A6P7 25-554 (Pan troglodytes entry)).
T4 construct: transient expression from a pTT5-based plasmid; also called CHO-S Cyno GPC3; CynoGPC3-CHO
Nature of the assay: flow cytometry, CHO-S cells transfected with cynomolgus monkey GPC3; apparent Kd.
Protocol: as §3

Assay [9] has as its target T1, human GPC3 on cells. Briefly: flow cytometry, HepG2 cells.
Protocol: as §2
For assay [10], the target named is T1, human GPC3 on cells. Nature of the assay: flow cytometry, JHH-7 cells; apparent Kd.
Protocol: as §2
The target of assay [11] is T1, human GPC3 on cells. Nature of the assay: flow cytometry, HepG2 cells; apparent Kd.
Protocol: as §2
In assay [12] the target is T1, human GPC3 on cells. Briefly: flow cytometry, JHH-7 cells.
Protocol: as §2
For assay [13], the target named is T1, human GPC3 on cells. Briefly: flow cytometry on HepG2 cells (GPC3-high), 24 h at 4 C, anti-human IgG Fc AF647. The source holds these as a separate data set.
Protocol: as §1, §2
In assay [14] the target is T1, human GPC3 on cells. Nature of the assay: flow cytometry on CHO-S cells transiently transfected with human GPC3, 24 h at 4 C, anti-human IgG Fc AF647.
Protocol: as §3
Assay [15] deals with T1, human GPC3 on cells. Briefly: flow cytometry on JHH-7 cells (GPC3-high), 24 h at 4 C, anti-human IgG Fc AF647. This is another data set of the same source.
Protocol: as §1, §2
A further assay concerns the target T5, FcgR1A (human, UniProt P12314 16-374).
T5 construct: whole, on cells
Briefly: Membrane Proteome Array: high-throughput flow cytometry on unfixed HEK293T cells, each well expressing one human membrane protein; antibody at 1.25 ug/mL; the text ascribes this to the Fc portion.

The target in assay [16] is T6, human GPC3 on cells (human, UniProt P51654 25-554).
T6 construct: whole, on cells; One molecule is used for transfected CHO-S cells and for tumour cell lines that carry GPC3; the cell line is named under assay or readout; also called CHO-S Human GPC3; GPC3 on HepG2, JHH-7, JHH-5, NCI-H446, FU-97, Huh-6, Huh-7, MKN-45 cells
Nature of the assay: flow cytometry, HepG2 cells.
Protocol: as §1, §2

For assay [17], the target named is T6, human GPC3 on cells. Briefly: flow cytometry, CHO-S cells transfected with human GPC3.
Protocol: as §3
The target of assay [18] is T7, cynomolgus monkey GPC3 on CHO-S cells (cynomolgus monkey, UniProt A0A2K5VK50 24-553).
T7 construct: whole, on cells; also called CHO-S Cyno GPC3
Nature of the assay: flow cytometry, CHO-S cells transfected with cynomolgus monkey GPC3.
Protocol: as §3

Assay [19] concerns the target T7, cynomolgus monkey GPC3 on CHO-S cells. Briefly: flow cytometry, CHO-S cells transfected with cynomolgus monkey GPC3; apparent Kd.
Protocol: as §3
Assay [20] has as its target T6, human GPC3 on cells. Nature of the assay: flow cytometry, JHH-7 cells.
Protocol: as §1, §2
In assay [21] the target is T6, human GPC3 on cells. Briefly: flow cytometry, JHH-5 cells.
Protocol: as §1, §2
For assay [22], the target named is T6, human GPC3 on cells. Nature of the assay: flow cytometry, CHO-S cells transfected with human GPC3; apparent Kd.
Protocol: as §3
For assay [23], the target named is T3, recombinant human GPC3 (ACROBiosystems). Briefly: SPR; Kd on huGPC3 over Kd on cynoGPC3.
Protocol: as §4, §5
The target is the same in assay [24]. Briefly: SPR.
Assay [25] concerns the target T1, human GPC3 on cells. Briefly: cell-based or functional assay.

Experimental findings from patent US20250295799A1 (Zymeworks, published 2025) are described below.

T5 sequence (P12314 16-374): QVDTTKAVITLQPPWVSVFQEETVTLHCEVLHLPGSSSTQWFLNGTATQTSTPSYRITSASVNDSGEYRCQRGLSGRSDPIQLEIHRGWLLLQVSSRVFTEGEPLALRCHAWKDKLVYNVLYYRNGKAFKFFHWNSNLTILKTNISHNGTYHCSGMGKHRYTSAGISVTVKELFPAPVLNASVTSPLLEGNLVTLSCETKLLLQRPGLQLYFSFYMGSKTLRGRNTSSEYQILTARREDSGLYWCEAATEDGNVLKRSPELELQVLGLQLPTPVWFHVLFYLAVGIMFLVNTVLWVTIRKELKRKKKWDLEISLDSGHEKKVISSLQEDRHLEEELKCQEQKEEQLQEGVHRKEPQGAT
Protocol for FcgR1A: Briefly, the study consisted of three phases: phase (1) determination of assay screening conditions, phase (2) membrane proteome array (library) screen and phase (3) protein target validation. […] In phase (3), each protein target hit from the screen stage (potential off-target interactions) was assessed in titration experiment using flow cytometry.

B1: v37574 (M3-H18L6) (antibody, human IgG1, kappa)
heavy: not shown
light: EIVLTQSPATLSLSPGERATISCRSSQSLRHSNGNTYLQWYQQKPGQAPRLLIYKVSNRFSGVPARFSGSGSGTDFTLTISSLEPEDFAVYFCYQSKHVPYTFGGGTKVEIKRTVAAPSVFIFPPSDEQLKSGTASVVCLLNNFYPREAKVQWKVDNALQSGNSQESVTEQDSKDSTYSLSSTLTLSKADYEKHKVYACEVTHQGLSSPVTKSFNRGEC
notes: humanized full-size IgG1 (IGHG1*01)/kappa antibody without heavy chain C-terminal lysine
One may read the EC50 (read off the curve) as the midpoint of the concentration-response curve. As for B1, the “EC50 (read off the curve)” value with human GPC3 on cells [1] was around 200 pM; with human GPC3 on cells [2], around 200 pM; with human GPC3 on cells [4] it was around 700 pM. Further, the Kd with human GPC3 on cells [3] came out at 530 pM; in assay [5] it was 11100 pM; in [6] it was 11100 pM; in assay [8] it was 380 pM; with human GPC3 on cells [10] it was 220 pM; with human GPC3 on cells [11], 1100 pM. Further, in assay [7], the NS-ELISA binding score is 0.91 ratio to buffer well. Further, the Bmax stood at 33900 in the assay with human GPC3 on cells [9] and 8520 with human GPC3 on cells [12].

B2: v38592-MC-GGFG-AM-Compound 139, DAR 4 (antibody, human IgG1, kappa)
heavy: not shown
light: B1 light
modifications: MC-GGFG-AM-Compound 139 drug-linker on reduced cysteines, sites not stated; MC-GGFG-AM-Compound 139 drug-linker on reduced cysteines, sites not stated; DAR 4 for the whole antibody
notes: antibody-drug conjugate
For the molecule B2, the “EC50 (read off the curve)” value with human GPC3 on cells [1] is around 400 pM; with human GPC3 on cells [13], around 9000 pM; with human GPC3 on cells [14], around 300 pM; with human GPC3 on cells [15], around 900 pM.

B3: v38592 (M3-H18L6 with HC C-terminal lysine) (antibody, human IgG1, kappa)
heavy: not shown
light: B1 light
notes: identical to v37574 but the cDNA of the heavy chains encodes a C-terminal lysine; also called M3-H18L6 (WT) mAb; wild-type M3-H18L6
On to B3, for which the binding result with FcgR1A is “binds”.

B4: v38592-MC-GGFG-AM-Compound 139, DAR 8 (antibody, human IgG1, kappa)
heavy: not shown
light: B1 light
modifications: MC-GGFG-AM-Compound 139 drug-linker on reduced cysteines, sites not stated; MC-GGFG-AM-Compound 139 drug-linker on reduced cysteines, sites not stated; DAR 8 for the whole antibody
notes: antibody-drug conjugate
With B4, the concentration giving a half-maximal response (EC50 (read off the curve)) in the assay with human GPC3 on cells [13] was around 7000 pM; with human GPC3 on cells [15], around 800 pM.

B5: v37574 (M3-H18L6) (antibody, human IgG1, kappa)
heavy: not shown
light: B1 light
notes: Humanized full-size IgG1/kappa antibody, heavy chains without C-terminal lysine
With B5, the Bmax is 4570 with human GPC3 on cells [16]; 242 with human GPC3 on cells [17]; 474 in assay [18]; 4980 with human GPC3 on cells [20]; 4350 with human GPC3 on cells [21]. Also, the Kd came to 390 pM in assay [19], 3310 pM with human GPC3 on cells [20], 200 pM in the assay with human GPC3 on cells [21] and 200 pM in the assay with human GPC3 on cells [22].

B6: v38592-MC-GGFG-AM-Compound 139, DAR 8 (antibody, human IgG1, kappa)
heavy: not shown
light: B1 light
modifications: MC-GGFG-AM-Compound 139 drug-linker on cysteines (positions not stated); DAR 8 per antibody
notes: Antibody-drug conjugate of v38592
Take B6: the Bmax with human GPC3 on cells [16] stood at 3370; with human GPC3 on cells [17] it was 247; in [18], 511; with human GPC3 on cells [20], 4550; with human GPC3 on cells [21], 5710. Moreover, the Kd with human GPC3 on cells [16] was 7270 pM; in assay [19], 700 pM; with human GPC3 on cells [20], 700 pM; with human GPC3 on cells [21], 510 pM; with human GPC3 on cells [22] it was 330 pM.

B7: v38592-MC-GGFG-AM-Compound 139, DAR 4 (antibody, human IgG1, kappa)
heavy: not shown
light: B1 light
modifications: MC-GGFG-AM-Compound 139 drug-linker on cysteines (positions not stated); DAR 4 per antibody
notes: as for B6
With B7, the Bmax came to 4050 with human GPC3 on cells [16]; 259 with human GPC3 on cells [17]; 506 in [18]; 4730 in the assay with human GPC3 on cells [20]; 5500 with human GPC3 on cells [21]. Besides, the Kd with human GPC3 on cells [16] came out at 8690 pM; in assay [19], 550 pM; in the assay with human GPC3 on cells [20], 880 pM; in the assay with human GPC3 on cells [21], 430 pM; with human GPC3 on cells [22], 290 pM.

B8: v37575 (codrituzumab) (antibody, human IgG1, kappa, V domains shown)
VH: QVQLVQSGAEVKKPGASVKVSCKASGYTFTDYEMHWVRQAPGQGLEWMGALDPKTGDTAYSQKFKGRVTLTADKSTSTAYMELSSLTSEDTAVYYCTRFYSYTYWGQGTLVTVSS
VL: DVVMTQSPLSLPVTPGEPASISCRSSQSLVHSNRNTYLHWYLQKPGQSPQLLIYKVSNRFSGVPDRFSGSGSGTDFTLKISRVEAEDVGVYYCSQNTHVPPTFGQGTKLEIKR
notes: also called GC33; RG-7686
For the molecule B8, the “EC50 (read off the curve)” value in the assay with human GPC3 on cells [2] was around 300 pM; with human GPC3 on cells [4], around 1000 pM. Also, the Kd turned out to be 1230 pM with human GPC3 on cells [3]; 910 pM in [5]; 910 pM in [6]; 980 pM in assay [8]; 260 pM with human GPC3 on cells [10]; 1200 pM with human GPC3 on cells [11]. Also, the “Fold difference (hu/cyno)” value in assay [23] was determined as 1 fold. Further, the NS-ELISA binding score in assay [7] was 1.11 ratio to buffer well. The values for the Bmax with human GPC3 on cells [9] and with human GPC3 on cells [12] were 42300 and 9000, respectively. The “fold higher affinity than M3-H18L6” value in [24] was around 10 fold. Moreover, the “internalized fluorescence, fold increase over palivizumab, Hep G2, 5 hours, 10 nM” value with human GPC3 on cells [25] is 14.4 fold. For the same molecule, in the assay with human GPC3 on cells [25], the “internalized fluorescence, fold increase over palivizumab, Hep G2, 24 hours, 10 nM” value turned out to be 57.2 fold. Also, in the assay with human GPC3 on cells [25], the “internalized fluorescence, fold increase over palivizumab, JHH-7, 5 hours, 10 nM” value stood at 8.5 fold. Besides, the “internalized fluorescence, fold increase over palivizumab, JHH-7, 24 hours, 10 nM” value in the assay with human GPC3 on cells [25] came out at 46.7 fold.

B9: v36180 (M3-H1L1) (antibody, human IgG1, kappa, V domains shown)
VH: EVQLVQSGAEVKKPGSSVKVSCKASGYTFTDYEMHWVRQAPGQGLEWIGAIDPETGDTAYNQKFKGRATLTADKSTSTAYMELSSLRSEDTAVYYCTRYFSFAYWGQGTLVTVSS
VL: DVQMTQSPSSVSASVGDRVTITCRSSQSLRHSNGNTYLQWYQQKPGKAPKLLIYKVSNRFSGVPSRFSGSGSGTDFTLTISSLQPEDFATYFCYQSKHVPYTFGQGTKVEIKR
notes: humanized full-size IgG1 (IGHG1*01)/kappa antibody; heavy chain ends at G446 (EU); also called M3-HIL1
Take B9: the “EC50 (read off the curve)” value was around 300 pM in the assay with human GPC3 on cells [2] and around 900 pM in the assay with human GPC3 on cells [4]. In addition, the “Fold difference (hu/cyno)” value in [23] is 1.1 fold. Also, the Kd in assay [5] turned out to be 9670 pM; in assay [6], 10500 pM; with human GPC3 on cells [10], 250 pM; in the assay with human GPC3 on cells [11] it was 910 pM. Moreover, the NS-ELISA binding score in [7] was 5.45 ratio to buffer well. The results for the Bmax with human GPC3 on cells [9] and in the assay with human GPC3 on cells [12] were 40000 and 9340, respectively. Besides, in the assay with human GPC3 on cells [25], the “internalized fluorescence, fold increase over palivizumab, Hep G2, 5 hours, 10 nM” value was 17 fold. In addition, in the assay with human GPC3 on cells [25], the “internalized fluorescence, fold increase over palivizumab, Hep G2, 24 hours, 10 nM” value amounted to 66.2 fold. Further, the “internalized fluorescence, fold increase over palivizumab, JHH-7, 5 hours, 10 nM” value in the assay with human GPC3 on cells [25] came out at 8.6 fold. Besides, in the assay with human GPC3 on cells [25], the “internalized fluorescence, fold increase over palivizumab, JHH-7, 24 hours, 10 nM” value was found to be 46.4 fold.
